In article PMC8501605:

Molecular target: T1, pseudokinase mixed lineage kinase domain-like (MLKL) (human (endogenous in post-mortem hippocampus)), Q8NB16
T1 chain: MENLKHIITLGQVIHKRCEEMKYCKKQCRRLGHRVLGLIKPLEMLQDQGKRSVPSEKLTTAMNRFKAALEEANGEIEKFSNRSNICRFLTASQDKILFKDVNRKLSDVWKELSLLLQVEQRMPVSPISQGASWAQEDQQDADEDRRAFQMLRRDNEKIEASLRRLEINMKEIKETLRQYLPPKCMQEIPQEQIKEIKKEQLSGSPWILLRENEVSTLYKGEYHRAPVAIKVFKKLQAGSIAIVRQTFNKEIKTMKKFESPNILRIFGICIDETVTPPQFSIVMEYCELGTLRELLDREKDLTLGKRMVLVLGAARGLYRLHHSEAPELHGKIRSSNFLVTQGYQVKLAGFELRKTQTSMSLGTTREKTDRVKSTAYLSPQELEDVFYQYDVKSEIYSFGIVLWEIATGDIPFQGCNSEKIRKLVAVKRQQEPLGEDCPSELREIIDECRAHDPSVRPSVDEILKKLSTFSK
Assay: non-reducing gel and western blot; hippocampal grey matter extracted in native conditions (TBS, 0.1% Triton X-100), run on 7.5% gel in non-reducing conditions, blot for MLKL; AD (n = 14) and control (n = 8) cases
Details: remark: other sources report otherwise

stoichiometry N: 4
B1: pseudokinase mixed lineage kinase domain-like (MLKL), Q8NB16 1-471 (natural protein)
chain: MENLKHIITLGQVIHKRCEEMKYCKKQCRRLGHRVLGLIKPLEMLQDQGKRSVPSEKLTTAMNRFKAALEEANGEIEKFSNRSNICRFLTASQDKILFKDVNRKLSDVWKELSLLLQVEQRMPVSPISQGASWAQEDQQDADEDRRAFQMLRRDNEKIEASLRRLEINMKEIKETLRQYLPPKCMQEIPQEQIKEIKKEQLSGSPWILLRENEVSTLYKGEYHRAPVAIKVFKKLQAGSIAIVRQTFNKEIKTMKKFESPNILRIFGICIDETVTPPQFSIVMEYCELGTLRELLDREKDLTLGKRMVLVLGAARGLYRLHHSEAPELHGKIRSSNFLVTQGYQVKLAGFELRKTQTSMSLGTTREKTDRVKSTAYLSPQELEDVFYQYDVKSEIYSFGIVLWEIATGDIPFQGCNSEKIRKLVAVKRQQEPLGEDCPSELREIIDECRAHDPSVRPSVDEILKKLSTFSK
